Experimental data from US10590386B2, “Methods and compositions for preparing cardiomyocytes from stem cells and uses thereof” (Insitute of Biophysics, Chinese Academy of Sciences, priority 2010, dated 2020).
Entries after “also recorded” stand apart in the source; their conditions may differ. Read-outs that look alike come from different tables or passages of the source.

B1: Noggin: BMP antagonist protein, added at 250 ng/ml (protein, UniProt Q13253 28-232, looked up)
Noggin: QHYLHIRPAPSDNLPLVDLIEHPDPIFDPKEKDLNETLLRSLLGGHYDPGFMATSPPEDRPGGGGGAAGGAEDLAELDQLLRQRPSGAMPSEIKGLEFSEGLAQGKKQRLSKKLRRKLQMWLWSQTFCPVLYAWNDLGSRFWPRYVKVGSCFSKRSCSVPEGMVCKPSKSVHLTVLRWRCQRRGGQRCGWIPIQYPIISECKCSC

How the values were obtained:
Assay type in all cases: cell-based, human
hESC line H7 [1] = assay: Cardiac differentiation efficiency of hESCs, CTNT antibody staining and flow cytometry on day 14
Experimental: (§1) Undifferentiated hESC line H7 from the WiCell Research Institute was maintained on matrigel-coated plates, as previously described^37. In the basic cardiac induction protocol (BP), undifferentiated hESCs were seeded on gelatin-coated plates at a density of 1-5×10^5 cells/cm^2 and cultured with mouse embryonic fibroblast conditioned medium for 3 days until fully confluent. To initiate cell differentiation, the medium was changed to RPMI1640, supplemented with B27 (Invitrogen). Cells were treated with 25 ng/ml BMP4 and 6 ng/ml bFGF at day 1, 100 ng/ml activin A at day 2, and 200 ng/ml DKK1 (R&D Systems) from day 6 to day 11. The medium was changed every 3 days after day 11 (FIG. 1). 250 ng/ml Noggin, 1 μM RA (Sigma) or 1 μM RAi were added to the cell culture at the times specified in FIGS. 1A-C. Spontaneous beating clusters were typically observed at days 10 to 11. Cardiac differentiation efficiency was analyzed on day 14 with CTNT antibody staining and flow cytometry.
Differentiated cell clusters were dissociated into single cells with 0.25% trypsin-EDTA, which were then fixed and stained with anti-human CTNT antibody (R&D Systems) and goat anti-mouse FITC-conjugated secondary antibody (Santa Cruz) in PBS plus 0.5% BSA and 0.1% saponin (Sigma) at 4° C. Stained cells were kept in 4% paraformaldehyde for subsequent quantitative analysis. Data were collected using FACScalibur (Becton Dickinson) and analyzed with FlowJo software (Treestar).

hESC line H7 [2] = assay: Immunostaining and Western blotting of cardiac markers in 60 day-old differentiated cultures
Experimental: as §1
Sixty (60) day-old differentiated cultures were digested with 0.25% trypsin-EDTA, and the cells were plated on gelatin-coated coverslips for 5 days, allowing full attachment to occur. Cells were then fixed in 4% paraformaldehyde, and incubated with primary antibodies of mouse anti-human CTNT (R&D systems), mouse anti-human α-Actinin (Sigma), mouse anti-human β-MHC (ATCC), mouse anti-human MLC-2a (Synaptic Systems), or rabbit anti-human MLC-2v (ProteinTech Group). Goat anti-mouse secondary antibody conjugated with DyLight 488 (Santa Cruz Biotechnology) and goat anti-rabbit secondary antibody conjugated with Tritc (Santa Cruz Biotechnology) were used as needed. After the nuclei were counterstained with 4′,6-diamidino-2-phenylindole (DAPI, Sigma), immunofluorescence images were visualized and recorded using an Olympus microscope system X51 or Olympus LSCM FV1000.
One well of a 24-well plate of 60 day-old differentiated cells was lysed with RIPA lysis buffer (Biomiga) for Western blotting. […]

[3] = system: hESC-derived cardiomyocytes; assay: Effect of nifedipine on AP duration of hESC-derived cardiomyocytes (patch clamp); details: myocytes from Noggin+RA-treated cultures; FIG. 4B right
Experimental: […] to 90 day-old differentiated cultures were washed in a low Ca^2+ solution, and then incubated in an enzyme solution for 20 min at 37° C. The dissociation was completed in KB solution by gently shaking for 40 min at room temperature. The isolated cells were resuspended in DMEM plus 10% FBS, and transferred on 0.1% gelatin-coated glass coverslips, and then kept in an incubator at 37° C., 5% CO2. The composition of the low Ca^2+ solution was (in mM):120 NaCl, 5.4 KCl, 5 MgSO4, 5 Na pyruvate, 20 glucose, 20 taurine, 10 HEPES. The pH was adjusted to 7.3 with NaOH. KB solution contained (in mM): 85 KCl, 30 K2HPO4, 5 MgSO4, 1 EGTA, 2 Na2ATP, 5 Na pyruvate, 20 glucose, 20 taurine, 5 creatine, adjusted to pH 7.3 with KOH.
Action potentials of cardiomyocytes were recorded in a whole-cell patch clamp configuration, using an Axon 200B amplifier (Axon Instruments) at room temperature. Data were digitized at 20 kHz and filtered at 2 kHz, and were analyzed by PClamp 9.0. Patch pipettes (2-4MΩ resistance) were filled with an intracellular solution containing (in mM) 50 KCl, 60 K-Aspartate, 1 MgCl2, 3 Na2ATP, 10 EGTA, 10 mM HEPES, adjusted to pH 7.3 with KOH. Normal Tyrode's solution was used as an extracellular solution and contained (in mM) 140 NaCl, 5 KCl, 1 CaCl2, 1 MgCl2, 10 glucose, 10 HEPES, adjusted to pH 7.4 with NaOH.

BMP signaling = assay: Western blot for phosphorylated Smad1,5,8; details: data not shown
Experimental: One well of a 24-well plate of 60 day-old differentiated cells was lysed with RIPA lysis buffer (Biomiga) for Western blotting. Blots were incubated with mouse anti-human CTNT, mouse anti-human β-MHC, rabbit anti-human MLC-2v, goat anti-ANF, mouse anti-human MLC-2a, mouse anti-human β-actin, rabbit anti-phospho smad1/5/8 and rabbit anti-smad1/5/8 separately, and then with HRP-conjugated goat anti-mouse or anti-rabbit antibody.

| Molecule | effect on cardiac differentiation efficiency / cardiogenesis of hESCs (summary statement) (hESC line H7 [1]) | effect on cardiac differentiation (hESC line H7 [1]; RAi added between days 6 to 9, FIG. 1C) | effect on cardiac differentiation efficiency / cardiogenesis of hESCs (summary statement) (hESC line H7 [1]; listed as BMS-189453) | β-MHC expression (western blots) (hESC line H7 [2]; 60 day old RA and RAi treated cultures (with Noggin), FIG. 6) | effect on duration of atrial-like APs [3] | effect on cardiac differentiation (hESC line H7 [1]; Noggin present between days 2 and 3, FIG. 1B) | effect on cardiac differentiation (hESC line H7 [1]; Noggin present between days 2.5 and 4.5, FIG. 1B) | effect on cardiac differentiation (hESC line H7 [1]; Noggin present between days 4 and 5, FIG. 1B) | differentiation efficiency (CTNT+ cells, flow cytometry) (hESC line H7 [1]; day 14 cultures, Noggin on days 4 and 5, RAi from days 6 to 8, mean±s.e.m, FIG. 1D) | cTNT positive cells that are also MLC-2v positive (hESC line H7 [2]; 60 day old cultures, immunostaining, FIG. 5) | MLC-2v expression (Western blotting) (hESC line H7 [2]; 60 day-old cultures, FIG. 3C, FIG. 5) | activities of BMP signaling (phosphorylated Smad1,5,8) (BMP signaling) |
| --- | --- | --- | --- | --- | --- | --- | --- | --- | --- | --- | --- | --- |
| CC1(C)CC=C(c2ccccc2)c2cc(/C=C/c3ccc(C(=O)O)cc3)ccc21 [RAi, BMS-189453, reference compound] | significantly promote cardiogenesis | markedly increased | significantly increase | evenly expressed | – | – | – | – | – | – | – | – |
| COC(=O)C1=C(C)NC(C)=C(C(=O)OC)C1c1ccccc1[N+](=O)[O-] [nifedipine] | – | – | – | – | No significant effect | – | – | – | – | – | – | – |
| B1 | significantly increase; also recorded: significantly promote cardiogenesis | – | – | – | – | slightly repressed | significantly promoted | Highest cardiac differentiation efficiencies | 50%±3.06% | about 35% | weak MLC-2v expression | reduced the activities of BMP signaling |
